In publication PMC2998437, “S. aureus MscL Is a Pentamer In Vivo but of Variable Stoichiometries In Vitro: Implications for Detergent-Solubilized Membrane Proteins” (PLoS Biology, 2010):

What was measured:
[1] = target: L10C/L89C SaMscL (S. aureus) (UniProt Q6G9L1); assay: cross-linking; in vivo disulfide trapping of double-cysteine mutants in the cell membrane; cells osmotically shocked (water with 1.5 uM copper phenanthroline, 15 min, 37 C) or mock shocked; non-reducing SDS-PAGE, anti-Penta His Western blot
[2] = target: the molecule itself; assay: SEC-MALS; SaMscL purified in LDAO, then exchanged into C8E5 and measured the following day
[3] = target: the molecule itself; assay: cross-linking; purified protein in LDAO (2.1 mM final); 5 ug protein with 2 mM DSS on ice for 5 min; anti-Penta His Western blot
[4] = target: the molecule itself; assay: cross-linking; in vivo disulfide trapping of double-cysteine mutants in the cell membrane; cells osmotically shocked (water with 1.5 uM copper phenanthroline, 15 min, 37 C) or mock shocked; non-reducing SDS-PAGE, anti-Penta His Western blot

## L10C/L89C SaMscL (from UniProt Q6G9L1 1-120) (natural protein)
[1]
  stoichiometry N: 5

B1: S. aureus mechanosensitive channel of large conductance (SaMscL) (natural protein, UniProt Q6G9L1 1-120, looked up)
chain: MLKEFKEFALKGNVLDLAIAVVMGAAFNKIISSLVENIIMPLIGKIFGSVDFAKEWSFWGIKYGLFIQSVIDFIIIAFALFIFVKIANTLMKKEEAEEEAVVEENVVLLTEIRDLLREKK
notes: MscL, large-conductance mechanosensitive channel of S. aureus, GenBank CAG43065; printed monomer mass 14.4 kDa; the printed GenBank entry holds; Pentamer in Triton X-100 and C8E5 and in vivo; tetramer in LDAO (copies would then be 4); Expressed from two vectors (pET21a, pB10) with no difference reported; also called S. aureus MscL; source: E. coli PB116 (pET21a), purified (DM extraction, Ni-NTA, …)
[2]
  stoichiometry N: 5
[3]
  stoichiometry N: 4

B2: L10C/M91C SaMscL (natural protein)
chain: MLKEFKEFACKGNVLDLAIAVVMGAAFNKIISSLVENIIMPLIGKIFGSVDFAKEWSFWGIKYGLFIQSVIDFIIIAFALFIFVKIANTLCKKEEAEEEAVVEENVVLLTEIRDLLREKK
notes: also called L10C/M91C protein; source: bacterial cultures induced with 1 mM IPTG, in the cell membrane (cells lysed in sample buffer)
[4]
  stoichiometry N: 5
